In patent US20160185837A1 (AstraZeneca / MedImmune, published 2016):
Ends that are not written are not given here.

T1: human GIP receptor (human, UniProt P48546 22-466)
T1 sequence (looked up): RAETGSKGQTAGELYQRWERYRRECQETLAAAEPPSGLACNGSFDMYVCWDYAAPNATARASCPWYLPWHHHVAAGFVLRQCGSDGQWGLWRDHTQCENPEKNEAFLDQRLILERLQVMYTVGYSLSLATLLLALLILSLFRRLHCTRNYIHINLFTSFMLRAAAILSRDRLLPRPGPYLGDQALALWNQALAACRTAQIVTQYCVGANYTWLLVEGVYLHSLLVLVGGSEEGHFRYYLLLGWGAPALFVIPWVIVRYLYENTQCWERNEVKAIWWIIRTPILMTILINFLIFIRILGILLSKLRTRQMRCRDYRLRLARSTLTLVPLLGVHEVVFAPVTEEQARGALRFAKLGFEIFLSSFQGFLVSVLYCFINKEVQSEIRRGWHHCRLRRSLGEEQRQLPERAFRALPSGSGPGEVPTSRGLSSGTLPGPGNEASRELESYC

T2: mouse GLP-1 receptor (mouse, UniProt O35659 22-463)
T2 sequence (looked up): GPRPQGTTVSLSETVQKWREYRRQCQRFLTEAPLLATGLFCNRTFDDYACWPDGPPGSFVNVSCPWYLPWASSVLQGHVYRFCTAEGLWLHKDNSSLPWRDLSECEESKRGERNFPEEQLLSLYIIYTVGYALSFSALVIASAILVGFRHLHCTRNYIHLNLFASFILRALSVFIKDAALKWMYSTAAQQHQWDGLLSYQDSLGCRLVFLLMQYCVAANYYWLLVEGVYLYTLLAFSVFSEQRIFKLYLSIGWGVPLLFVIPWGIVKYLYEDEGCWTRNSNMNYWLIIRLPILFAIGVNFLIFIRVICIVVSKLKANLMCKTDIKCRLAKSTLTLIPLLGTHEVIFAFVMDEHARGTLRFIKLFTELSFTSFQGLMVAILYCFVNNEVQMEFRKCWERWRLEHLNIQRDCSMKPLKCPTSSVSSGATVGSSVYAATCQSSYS

T3: rat GLP-1 receptor (rat, UniProt P32301 22-463)
T3 sequence (looked up): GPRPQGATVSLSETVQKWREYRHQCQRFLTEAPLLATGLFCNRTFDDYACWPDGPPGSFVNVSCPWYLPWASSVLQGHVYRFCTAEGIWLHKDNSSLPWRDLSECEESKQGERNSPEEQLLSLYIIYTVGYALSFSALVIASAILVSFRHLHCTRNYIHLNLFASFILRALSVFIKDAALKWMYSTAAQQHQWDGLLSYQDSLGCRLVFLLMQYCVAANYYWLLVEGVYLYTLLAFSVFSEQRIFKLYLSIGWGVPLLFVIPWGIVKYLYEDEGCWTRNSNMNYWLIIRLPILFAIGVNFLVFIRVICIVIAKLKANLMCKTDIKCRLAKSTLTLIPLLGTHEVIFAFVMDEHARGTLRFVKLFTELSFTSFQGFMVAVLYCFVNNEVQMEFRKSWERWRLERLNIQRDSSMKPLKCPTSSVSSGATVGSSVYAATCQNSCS

T4: rat GIP receptor (rat, UniProt P43219 19-455)
T4 sequence (looked up): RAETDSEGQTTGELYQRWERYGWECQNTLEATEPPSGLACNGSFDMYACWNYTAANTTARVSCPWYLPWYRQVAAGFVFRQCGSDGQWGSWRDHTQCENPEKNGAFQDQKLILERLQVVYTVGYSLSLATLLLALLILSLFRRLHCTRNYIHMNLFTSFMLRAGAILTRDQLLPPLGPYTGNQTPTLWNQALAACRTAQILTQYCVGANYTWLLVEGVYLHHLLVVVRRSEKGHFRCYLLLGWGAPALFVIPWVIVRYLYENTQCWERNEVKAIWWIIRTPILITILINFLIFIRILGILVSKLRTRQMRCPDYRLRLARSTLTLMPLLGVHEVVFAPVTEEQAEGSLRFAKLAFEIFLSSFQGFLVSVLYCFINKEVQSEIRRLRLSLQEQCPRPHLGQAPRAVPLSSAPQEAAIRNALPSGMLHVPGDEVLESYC

T5: mouse GIP receptor (mouse, UniProt Q0P543 19-460)
T5 sequence (looked up): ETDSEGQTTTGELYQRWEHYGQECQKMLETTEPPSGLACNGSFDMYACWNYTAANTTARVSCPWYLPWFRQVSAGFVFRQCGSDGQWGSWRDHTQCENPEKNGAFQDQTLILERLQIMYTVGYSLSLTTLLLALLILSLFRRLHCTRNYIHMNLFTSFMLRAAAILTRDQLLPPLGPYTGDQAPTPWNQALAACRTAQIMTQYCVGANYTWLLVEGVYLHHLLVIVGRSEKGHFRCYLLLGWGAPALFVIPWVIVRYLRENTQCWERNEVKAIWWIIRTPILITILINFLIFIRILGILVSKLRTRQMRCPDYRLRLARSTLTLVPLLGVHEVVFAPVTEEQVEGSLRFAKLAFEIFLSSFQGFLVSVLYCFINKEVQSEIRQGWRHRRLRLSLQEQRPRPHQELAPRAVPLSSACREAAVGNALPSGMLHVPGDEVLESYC


Key:
Experiment in all cases: cell-based or functional assay
human GIP receptor = molecular target: T1, human GIP receptor
mouse GLP-1 receptor = molecular target: T2, mouse GLP-1 receptor
rat GLP-1 receptor = molecular target: T3, rat GLP-1 receptor
rat GIP receptor = molecular target: T4, rat GIP receptor
mouse GIP receptor = molecular target: T5, mouse GIP receptor
human glucagon receptor = human glucagon receptor (human, UniProt P47871 26-477)
human GLP-1 receptor = human GLP-1 receptor (human, UniProt P43220 24-463)

| Binder | cAMP EC50 (human GIP receptor) [nM] | cAMP EC50 (mouse GLP-1 receptor) [nM] | cAMP EC50 (rat GLP-1 receptor) [nM] | cAMP EC50 (rat GIP receptor) [nM] | cAMP EC50 (mouse GIP receptor) [nM] | cAMP EC50 (human glucagon receptor) [nM] | cAMP EC50 (human GLP-1 receptor) [nM] | cAMP EC50, Batch 2 (human GIP receptor) [nM] | cAMP EC50, Batch 3 (human GIP receptor) [nM] | cAMP EC50, Batch 2 (human glucagon receptor) [nM] | cAMP EC50, Batch 3 (human glucagon receptor) [nM] | cAMP EC50, Batch 2 (human GLP-1 receptor) [nM] | cAMP EC50, Batch 3 (human GLP-1 receptor) [nM] | cAMP EC50, Batch 4 (human GIP receptor) [nM] | cAMP EC50, Batch 4 (mouse GLP-1 receptor) [nM] | cAMP EC50, Batch 4 (rat GLP-1 receptor) [nM] | cAMP EC50, Batch 4 (rat GIP receptor) [nM] | cAMP EC50, Batch 4 (mouse GIP receptor) [nM] | cAMP EC50, Batch 4 (human glucagon receptor) [nM] | cAMP EC50, Batch 4 (human GLP-1 receptor) [nM] |
| --- | --- | --- | --- | --- | --- | --- | --- | --- | --- | --- | --- | --- | --- | --- | --- | --- | --- | --- | --- | --- |
| IP236 (Fc fusion, cysteine pairing not given here; also: fused to IgG1-TM Fc) YSEGTFTSDYSKLLEEEAVRLFIEWLVKGPGGGGGSGGGGSGGGGSATHTCPPCPAPEF | 0.016 | 0.3 | 0.024 | 0.21 | 460 | > 5500 | 0.15 | – | – | – | – | – | – | – | – | – | – | – | – | – |
| IP131 (Fc fusion) YSEGTFTSDYSKLLEEEAVRLFIEWLLAGGGGGGSGGGGSGGGGSGGGGSATHTCPPCPAPEF | 0.0091 | 1 | 0.1 | 0.23 | 5.1 | 23 | 0.1 | – | – | – | – | – | – | – | – | – | – | – | – | – |
| IP237 (Fc fusion) YSEGTFTSDYSKLLEEEAVRLFIEWLVKGPGGGGGSGGGGSGGGGSGGGGSATHTCPPCPAPEF | 0.012 | 0.29 | 0.023 | 0.14 | 170 | > 1800 | 0.095 | – | – | – | – | – | – | – | – | – | – | – | – | – |
| IP262 (Fc fusion) YSEGTFTSDYSKLLEEEAVRLFIEWLLKGPGGGGGSGGGGSGGGGSGGGGSATHTCPPCPAPEF | 0.01 | 0.53 | 0.036 | 0.019 | 3 | 63 | 0.21 | – | – | – | – | – | – | – | – | – | – | – | – | – |
| IP261 (Fc fusion) YSEGTFTSDYSKLLEEEAVRLFVEWLVKGPGGGGGSGGGGSGGGGSGGGGSATHTCPPCPAPEF | 0.03 | 0.34 | 0.028 | 0.27 | 230 | > 2400 | 0.14 | – | – | – | – | – | – | – | – | – | – | – | – | – |
| IP260 (Fc fusion) YSEGTFTSDYSKLLEEEAVQLFIEWLVKGPGGGGGSGGGGSGGGGSGGGGSATHTCPPCPAPEF | 0.033 | 5.3 | 0.25 | 0.45 | 2400 | > 16000 | 0.91 | – | – | – | – | – | – | – | – | – | – | – | – | – |
| IP259 (Fc fusion) YSEGTFTSDYSKLLEKEAVRLFIEWLVKGPGGGGGSGGGGSGGGGSGGGGSATHTCPPCPAPEF | 0.027 | 0.31 | 0.029 | 0.033 | 12 | > 480 | 0.1 | – | – | – | – | – | – | – | – | – | – | – | – | – |
| IP258 (Fc fusion) YSEGTFTSDYSKLLDEEAVRLFIEWLVKGPGGGGGSGGGGSGGGGSGGGGSATHTCPPCPAPEF | 0.039 | 2.3 | 0.12 | 1.5 | 870 | > 19000 | 0.42 | – | – | – | – | – | – | – | – | – | – | – | – | – |
| IP263 (Fc fusion) YSEGTFTSDYSKLLEEEAVRLFIEWLVKQPGGGGGSGGGGSGGGGSGGGGSATHTCPPCPAPEF | 0.027 | 0.96 | 0.042 | 1.1 | 7000 | > 18000 | 0.14 | – | – | – | – | – | – | – | – | – | – | – | – | – |
| IP243 (Fc fusion) YSEGTFTSDYSKLLEEEAQRLFIEWLVKGPAAAGGSGSTASSGSGSATGGGGAATHTCPPCPAPEF | 0.01 | 0.36 | 0.024 | 0.091 | 32 | > 2100 | 0.25 | 0.0069 | 0.0072 | 1400 | 1400 | 0.21 | 0.17 | – | – | – | – | – | – | – |
| IP212 (Fc fusion) YSEGTFTSDYSKLLEEEAVREFIAWLVKGPAAAGGSGSTASSGSGSATGGGGAATHTCPPCPAPEF | 0.0081 | 0.35 | 0.034 | 0.12 | 190 | > 4000 | 0.087 | – | – | – | – | – | – | – | – | – | – | – | – | – |
| IP085 (Fc fusion) YSEGTFTSDYSKLLEEEAVRLFIEWLLAGAPPGGSGSTASSGSGSATGGGGAATHTCPPCPAPEF | 0.0099 | 0.95 | 0.1 | 0.15 | 0.72 | 7.1 | 0.15 | – | – | – | – | – | – | 0.0065 | 0.58 | 0.023 | 0.031 | 0.21 | 3.6 | 0.1 |
